From paper PMC8946217, “Selective Targeting of Protein Kinase C (PKC)-θ Nuclear Translocation Reduces Mesenchymal Gene Signatures and Reinvigorates Dysfunctional CD8^+ T Cells in Immunotherapy-Resistant and Metastatic Cancers” (Cancers, 2022) come the findings set out here.

The term Kd denotes the concentration at which binding is half-saturated. Higher therefore signals a looser complex.

This assay has as its target biotinylated GST-importin α2 (UniProt P52293 1-529, biotinylated). Briefly: AlphaScreen or HTRF; about 30 nM His6-PKC-θ and increasing concentrations of biotinylated GST-importins; in triplicate; three parameter sigmoidal curves fitted; quenched values in the hooking zone excluded. The conditions noted are these: both partners purified.

B1: His6-PKC-θ (protein kinase C theta) (enzyme)
chain: MSPFLRIGLSNFDCGSCQSCQGEAVNPYCAVLVKEYVESENGQMYIQKKPTMYPPWDSTFDAHINKGRVMQIIVKGKNVDLISETTVELYSLAERCRKNNGKTEIWLELKPQGRMLMNARYFLEMSDTKDMNEFETEGFFALHQRRGAIKQAKVHHVKCHEFTATFFPQPTFCSVCHEFVWGLNKQGYQCRQCNAAIHKKCIDKVIAKCTGSAINSRETMFHKERFKIDMPHRFKVYNYKSPTFCEHCGTLLWGLARQGLKCDACGMNVHHRCQTKVANLCGINQKLMAEALAMIESTQQARCLRDTEQIFREGPVEIGLPCSIKNEARPPCLPTPGKREPQGISWESPLDEVDKMCHLPEPELNKERPSLQIKLKIEDFILHKMLGKGSFGKVFLAEFKKTNQFFAIKALKKDVVLMDDDVECTMVEKRVLSLAWEHPFLTHMFCTFQTKENLFFVMEYLNGGDLMYHIQSCHKFDLSRATFYAAEIILGLQFLHSKGIVYRDLKLDNILLDKDGHIKIADFGMCKENMLGDAKTNTFCGTPDYIAPEILLGQKYNHSVDWWSFGVLLYEMLIGQSPFHGQDEEELFHSIRMDNPFYPRWLEKEAKDLLVKLFVREPEKRLGVRGDIRQHPLFREINWEELERKEIDPPFRPKVKSPFDCSNFDKEFLNEKPRLSFADRALINSMDQNMFRNFSFMNPGMERLIS
notes: protein kinase C theta (PKC-θ); also called recombinant purified His6-PKC-θ; source: recombinant, purified
For B1, binding was characterised by a dissociation constant (Kd) of 2.75 nM.
